Source: patent publication US20200317768A1 (published 2020)
Changes are numbered by the printed parent chain. Names and notes keep the numbering of the source.

T1: cynomolgus monkey FcγRIIb extracellular domain, C-terminal His-tag (cynomolgus monkey)
T1 construct: also called cyno FcγRIIb; cynoFcγRIIb; not shown: His-tag added to C-terminus
T1 chain: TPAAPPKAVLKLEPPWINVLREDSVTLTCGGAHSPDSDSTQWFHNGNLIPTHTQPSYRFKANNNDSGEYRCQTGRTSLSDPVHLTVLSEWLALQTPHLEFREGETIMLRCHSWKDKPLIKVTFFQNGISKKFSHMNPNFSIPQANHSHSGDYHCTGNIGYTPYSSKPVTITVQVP

T2: cynomolgus monkey FcγRIIa2 extracellular domain, C-terminal His-tag (cynomolgus monkey)
T2 construct: also called cyno FcγRIIa2; cynoFcgRIIa2; not shown: His-tag added to C-terminus
T2 chain: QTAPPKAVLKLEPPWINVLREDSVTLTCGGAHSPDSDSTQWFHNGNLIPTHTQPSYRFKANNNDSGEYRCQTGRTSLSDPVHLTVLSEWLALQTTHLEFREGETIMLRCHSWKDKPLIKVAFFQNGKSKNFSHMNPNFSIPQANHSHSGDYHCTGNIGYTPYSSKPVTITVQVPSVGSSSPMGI

T3: human FcγRIIaH extracellular domain, C-terminal His-tag (human, UniProt P12318 34-217)
T3 construct: also called human FcγRIIa (type H); FcgRIIaH; not shown: His-tag added to C-terminus
T3 sequence: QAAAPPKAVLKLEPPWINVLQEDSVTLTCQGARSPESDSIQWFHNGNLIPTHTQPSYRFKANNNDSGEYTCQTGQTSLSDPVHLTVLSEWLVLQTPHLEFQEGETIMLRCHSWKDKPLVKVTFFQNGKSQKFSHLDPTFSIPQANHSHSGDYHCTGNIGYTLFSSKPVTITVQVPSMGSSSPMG

T4: human FcγRIIb extracellular domain, C-terminal His-tag (human, UniProt P31994 43-217)
T4 construct: also called humanFcgRIIb; not shown: His-tag added to C-terminus
T4 sequence: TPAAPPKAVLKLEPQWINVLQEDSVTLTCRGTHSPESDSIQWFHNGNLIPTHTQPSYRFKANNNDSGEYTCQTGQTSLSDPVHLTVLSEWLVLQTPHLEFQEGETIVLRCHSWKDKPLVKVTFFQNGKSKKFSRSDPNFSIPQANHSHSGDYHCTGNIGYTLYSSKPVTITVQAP

B1: MS_M103205H795-SG1/M103202L889-SK1 (antibody, human IgG1, kappa)
heavy: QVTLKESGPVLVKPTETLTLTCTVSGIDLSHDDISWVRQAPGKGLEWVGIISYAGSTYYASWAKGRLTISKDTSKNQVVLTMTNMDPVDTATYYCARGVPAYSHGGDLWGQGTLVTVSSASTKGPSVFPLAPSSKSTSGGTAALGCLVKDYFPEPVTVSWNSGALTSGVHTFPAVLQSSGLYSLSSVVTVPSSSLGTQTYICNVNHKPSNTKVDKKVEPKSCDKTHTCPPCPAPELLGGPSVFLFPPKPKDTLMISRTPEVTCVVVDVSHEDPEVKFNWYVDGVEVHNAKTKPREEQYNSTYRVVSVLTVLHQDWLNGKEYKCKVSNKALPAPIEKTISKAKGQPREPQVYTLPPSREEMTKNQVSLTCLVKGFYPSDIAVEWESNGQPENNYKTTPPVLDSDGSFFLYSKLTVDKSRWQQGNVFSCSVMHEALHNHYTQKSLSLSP
light: DIVMTQSPATLSLSPGERATLSCTSSQSVYHANWLSWFQQKPGQPPKLLIYWASTLAYGVPSRFSGSGSGTDFTLTISSLQPEDAATYYCAGGYGGGRYAFGQGTKVEIKRTVAAPSVFIFPPSDEQLKSGTASVVCLLNNFYPREAKVQWKVDNALQSGNSQESVTEQDSKDSTYSLSSTLTLSKADYEKHKVYACEVTHQGLSSPVTKSFNRGEC
notes: Parent antibody with SG1 human heavy chain constant region; also called MS1032LO06-SG1
B2: M103205H795-MY335 / M103202L889-SK1 (antibody, human IgG1, kappa)
heavy: QVTLKESGPVLVKPTETLTLTCTVSGIDLSHDDISWVRQAPGKGLEWVGIISYAGSTYYASWAKGRLTISKDTSKNQVVLTMTNMDPVDTATYYCARGVPAYSHGGDLWGQGTLVTVSSASTKGPSVFPLAPSSKSTSGGTAALGCLVKDYFPEPVTVSWNSGALTSGVHTFPAVLQSSGLYSLSSVVTVPSSSLGTQTYICNVNHKPSNTKVDKKVEPKSCDKTHTCPPCPAPELLTGPSVFLFPPKPKDTLMISRTPEVTCVVVDVSDEDPEVKFNWYVDGVEVHNAKTKPREEQYNSTYRVVSVLTVLHRDWLNGKEYKCKVSNKALPKPIEKTISKAKGQPREPQVYTLPPSREEMTKNQVSLTCLVKGFYPSDIAVEWESNGQPENNYKTTPPVLDSDGSFFLYSKLTVKKSRWQQGNVFSCSVMHEALHNHYTQKSLSLSP
light: B1 light
notes: CH with G236T/H268D/Q311R/A330K/D413K against SG1 (EU numbering); also called MS1032LO06-MY335
B3: M103205H795-MY344 / M103202L889-SK1 (antibody, human IgG1, kappa)
heavy: B2 heavy with T238N, Q297L
light: B1 light
notes: CH with G236N/H268D/Q295L/Q311R/A330K/D413K against SG1 (EU numbering); also called MS1032LO06-MY344
B4: M103205H795-MY205 / M103202L889-SK1 (antibody, human IgG1, kappa)
heavy: B2 heavy with T238N, Q297L, R313Q, K415D
light: B1 light
notes: CH with G236N/H268D/Q295L/A330K against SG1 (EU numbering); also called MS1032LO06-MY205
B5: M103205H795-MY351 / M103202L889-SK1 (antibody, human IgG1, kappa)
heavy: B2 heavy with T238N
light: B1 light
notes: CH with G236N/H268D/Q311R/A330K/D413K against SG1 (EU numbering); also called MS1032LO06-MY351
B6: M103205H795-MY101 / M103202L889-SK1 (antibody, human IgG1, kappa)
heavy: B2 heavy with T238N, D270E, R313Q, P398M, K415D
light: B1 light
notes: CH with G236N/H268E/A330K/P396M against SG1 (EU numbering); also called MS1032LO06-MY101
B7: M103205H795-MY201 / M103202L889-SK1 (antibody, human IgG1, kappa)
heavy: B2 heavy with T238N, R313Q, K415D
light: B1 light
notes: CH with G236N/H268D/A330K against SG1 (EU numbering); also called MS1032LO06-MY201
B8: M103205H795-PK2 / M103202L889-SK1 (antibody, human IgG1, kappa)
heavy: B2 heavy with T238N, D270E, R313Q, P398M, S402R
light: B1 light
notes: CH with G236N/H268E/A330K/P396M/S400R/D413K against SG1 (EU numbering); also called MS1032LO06-PK2; MS103205H795-PK2

target: T5, cynomolgus monkey FcγRIIIaS extracellular domain, C-terminal His-tag (cynomolgus monkey, UniProt A3RFZ7 21-206 (rhesus entry)); test: SPR (BIACORE), antibody captured, FcγR analyte
T5 construct: also called cyno FcγRIIIaS; cynoFcγRIIIaS; not shown: His-tag added to C-terminus
Method: (§1) The kinetic analysis of interactions between these antibodies and FcγR was carried out using BIACORE® T200 or BIACORE® 4000 (GE Healthcare). HBS-EP+ (GE Healthcare) was used as the running buffer, and the measurement temperature was set to 25° C. A chip produced by immobilizing Protein A. Protein A/G or mouse anti-human IgG kappa light chain (BD Biosciences) onto a Series S Sensor Chip CM4 or CM5 (GE Healthcare) by the amine-coupling method was used. […] After the measurement, the antibody captured on the chip was washed off by allowing reaction with 10 mM glycine-HCl, pH1.5 and 25 mM NaOH so that the chip was regenerated and used repeatedly. The sensorgrams obtained as measurement results were analyzed by the 1:1 Langmuir binding model using the BIACORE® Evaluation Software to calculate the binding rate constant ka (L/mol/s) and dissociation rate constant kd (l/s), and the dissociation constant KD (mol/L) was calculated from these values. […] Regarding such interactions, KD values were calculated using the following 1:1 binding model described in BIACORE® T100 Software Handbook BR1006-48 Edition AE.
(§2) The behavior of interacting molecules according to the 1:1 binding model on BIACORE® can be described by Equation 1: Req=C·R max/(KD+C)+RI, wherein, Req is a plot of steady-state binding levels to analyte concentration. C is concentration, RI is bulk refractive index contribution in the sample, and Rmax is analyte binding capacity of the surface. When this equation is rearranged, KD can be expressed as Equation 2: KD=C·Rmax/(Req−RI)−C. KD can be calculated by substituting the values of Rmax, RI, and C into Equation 1 or Equation 2. From the current measurement conditions, RI=0, C=2 μmol/L can be used.

T5 sequence (A3RFZ7 21-206): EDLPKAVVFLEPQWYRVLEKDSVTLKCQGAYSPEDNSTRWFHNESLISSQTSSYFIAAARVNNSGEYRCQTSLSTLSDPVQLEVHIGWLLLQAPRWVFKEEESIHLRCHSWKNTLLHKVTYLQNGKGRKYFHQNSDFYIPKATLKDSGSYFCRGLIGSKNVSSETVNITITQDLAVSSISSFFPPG

Binder | Kd [µM]
B1 | 0.36
B2 | 1.5
B3 | 4.9
B4 | 6
B5 | 5.2
B6 | 3.2
B7 | 5.7
B8 | 3.9

Target: T1, cynomolgus monkey FcγRIIb extracellular …
Test: SPR (BIACORE), antibody captured, FcγR analyte
Method: as §1, §2

Binder | Kd [µM]
B1 | 1.8
B2 | 0.65
B3 | 0.31
B4 | 0.25
B5 | 0.35
B6 | 0.35
B7 | 0.43
B8 | 0.38

Target: T2, cynomolgus monkey FcγRIIa2 …
Test: SPR (BIACORE), antibody captured, FcγR analyte
Method: as §1, §2

Binder | Kd [µM]
B1 | 5.1
B2 | 1.7
B3 | 1.1
B4 | 1.1
B5 | 0.76
B6 | 1.2
B7 | 1.4
B8 | 1.3

target: T3, human FcγRIIaH extracellular domain, …; test: SPR (BIACORE), antibody captured, FcγR analyte
Method: as §1, §2

Binder | Kd [µM]
B1 | 0.69
B2 | 0.29
B3 | 0.67
B4 | 0.47
B5 | 1
B6 | 0.49
B7 | 0.91
B8 | 0.57

target: T4, human FcγRIIb extracellular domain, …; test: SPR (BIACORE), antibody captured, FcγR analyte
Method: as §1, §2

Binder | Kd [µM]
B1 | 4.6
B2 | 2.3
B3 | 0.72
B4 | 0.56
B5 | 1.2
B6 | 0.49
B7 | 1.1
B8 | 0.59

target: T6, human FcγRIIIaV extracellular domain, C-terminal His-tag (human, UniProt P08637 17-208); test: SPR (BIACORE), antibody captured, FcγR analyte
T6 construct: also called FcgRIIIaV; not shown: His-tag added to C-terminus
Method: as §1, §2

T6 sequence (P08637 17-208 F176V): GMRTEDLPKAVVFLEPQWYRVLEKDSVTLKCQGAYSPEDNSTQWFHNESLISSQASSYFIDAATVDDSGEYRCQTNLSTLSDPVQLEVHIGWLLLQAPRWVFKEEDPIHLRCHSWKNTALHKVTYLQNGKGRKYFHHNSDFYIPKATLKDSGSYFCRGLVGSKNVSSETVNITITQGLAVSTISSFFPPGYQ

Binder | Kd [µM]
B1 | 0.81
B2 | 5
B3 | 19
B4 | 13
B5 | 14
B6 | 11
B7 | 24
B8 | 13
